The results in this text go back to the DeepSol protein solubility set.

This series in a line: soluble on expression in E. coli; label from the status in PepcDB or PDB records.
“MGSDKIHHHHHHMIKCIAVDDEPLALEQLTGYIARVPFLQLIASCQDAFSAMQVLSEEEVDLMFVDIHMPDLNGLDLVRSLVVKPLIVFTTAYPEYAVEGFKVDAVDYLLKPFEFQDLLKAADKARRQFEYHLQDNGGGTETDLLEKDGSLFVKSEYKIIRINVADICYIEGMSEYVRIYTDTADKPVVTLLSMRKLEERLPQEMFMRVHRSYIVNLRKITEVSRLRIIFNKNIYIPVGDNYKERFTEYINKICVSS”: the “soluble on expression in E. coli” value is “not soluble”.

As for “AVFRHTLLHFFERLQSNDIYYKFHNILFLKCEHTEQNAAVIAIARKHQAIWREKITAVLTEAVENQDLADDLDKETAVIFIKSTLDGLIWRWFSSCERFDLGKTAPRIIGIMMDNLENHPDLRRK”, the “soluble on expression in E. coli” value is on record as “not soluble”.

For the sequence “MGSDKIHHHHHHMATIDLIVLGIVKQQPKSAYDIQKAVEYRNISRWVKISTPSIYKKVIQLEQKGYIESKTVKNGKMPEKAVYSLTELGETHFLDLMFDTSSKPINILLDFNAVIVNLNSLTPEKQKLCLNNIEENVQELKKTIEENISIKTEVPETAKAVLEQQLVLAQALETWINSLKDNTGN”, the “soluble on expression in E. coli” value is listed as “not soluble”.

For the sequence “MWKRIALFLVVLLLAACGKTIPDAKNWPVEDFTFVDQTGKPFGLRDLKGKVWVADFIFTNCETVCPPMTAHMAKLKQMAKKEGLDVEFVSFSVDPEVDTPEKLAAYAKQFTDDLSNWHLLTGYSPAEISELAQKSFKTIVQKPANDDQVVHGTSFYLVGPDGKVVQTYSGVQDVPYETILEHIKIVQSSQ”, the “soluble on expression in E. coli” value is “not soluble”.

For the sequence “MPLSPTSVPLTVKEFEKALCGICGGCSSACGYIAYLKQDELVDLYGHPHDPNGIGSFCTKGITYIQEIPKNPLRITKPLLREGNNFREVEFQETKKLIKENLKGKVAFFLDRFAGIEEYLIARSLTEEVFSDSLYLPFKQTSVRAQDWVDKKALFIFEAEPTFSEVMLTRWIVDAFEKDAYIFTAGSRYTTVFQKSKEKVLTTPEKTTEILQALSEGRFEGKAQKFLEFFGKESVVIVGDTLLRSPFRGKVLKTLKEISEKYGADYSIVGNITPFPVKSLKEFLERLGEFDTLVLFGNPFIYLSDEQIQKLKDKFVINFAYFPTITANHSTLIIPRTTFAEREFIVKGFGFLAHSPQVLNAPFPQPYEYFESSFDVEDFLKECGVKLEELKEKEGGVDISMKDITEVDINEEDRSESGELWFICDNTLAEELGHWNPWTHALEREQFAYVNQKTKERLNIGNLIEINGVKLKVKVNNNLADNVVFVPNSFEEFQPFDPGIRVGRLMKKPFFKLEVLNLNV”, the “soluble on expression in E. coli” value was “not soluble”.

Consider “GSHSMKYFYTSMSRPGRGQPRFIAVGYVDDTQFVRFDSDAASQRMEPRAPWVEQEGPEYWDRETRNMKTETQNAPVNLRTLLRYYNQSEAGSHTLQRMVGCDLGPDGRLLRGYEQYAYDGKDYIALNEDLRSWTAADVAAQNTQRKWEAADVAESMRAYLEGQCVEWLPRYLEKGKETLQRTDPPKTHVTHHPVSDHEATLRCWALGFYPAEITLTWQRDGEDQTQDTELVETRPAGDGTFQKWAAVVVPSGEEQRYTCHVQHEGLPKPHTLKWEPHH”, for which the “soluble on expression in E. coli” value was “soluble”.

As to “MKAEGLSGGYGDSRLINNVSLTVEKGEFLGILGPNGSGKTTLLHLLTGTLPAKKGRVYLAGKLLADYKPKELAQIMAVLPQKMDQAFTFTVEETVAFGRYPFQTGLFRQQTEKGEAIVQEAMEQTGVADFAQKPIRELSGGEQQRVYLAQALAQQPRILFLDEPTNFLDLAYQKDLLDLIKRLTRESGLAAVSVFHDLNTASLYCDGLMFMKNGTAGPKQKPEYAVTEQSIKAVYDTDVTALVHQSSPKPMIVIQPEKDSVKRQSIPFEALLQAGRDDILLQTEIPLRTLSSTPIGAGFSWSRTLIHKRLPDQPDPIEGLTACLSESGFQLQETCAMASSERLDRFVYRTYEDGELSVFICVQTGFSIWILINGYAADQFFIKALMAAEAERTKVLGDGGGTGDILIAATQTQQSENIEQRLNQLIKKGTAECIKEAAELF”, the “soluble on expression in E. coli” value is listed as “not soluble”.

As for “MKKEANFDEVLFSLGQEVIQVLIRRGASLEDAQDAVSQTYTTIFSILPEITSENLRPWFFRVTFNYYITMYRKKKRERTFVANSHPVQSIEKMEGQELLLLIDSLKDEEQELVLLKYYYQLSYAEIALILELSVENVRKKLYRTRQKLKKELEE”, the “soluble on expression in E. coli” value is on record as “not soluble”.

Consider “MSELSDEEISLQALYDPSKKVIGDIEDGIFSTPELQPRIKTGIDNLQLVTKLVNQMRLFSSNEQIEDVPTNSLPYLLVPCFLGILHQNLMTEPGLKLDELRKSKIYMRNFLDRLRDLCLITTRLPWEDEDTEEQNLKEKPKLAVEEIRRLKLERHKKKQELKMAELRIQKQLEAVSIDEQNLRELYITQLLFWSERCYEELQAIDDELPLLKMMAERASHPHRHPAPPPATKTVPTLKPFIITRDAQQKQVFGLGYPGIPAMSVDEWYHQKFGHNPQNAPQSSAPAGAEAQESEEEVDDDEARAKAMRWDEYKDDHRRGWGNMHNKG”, for which the “soluble on expression in E. coli” value is on record as “soluble”.

Take “MGSDKIHHHHHHMAIEITTAEKRLLQRVSIPPRPETLLTVSREAKKSEPDVNVIAESISADMSIAAAVLQVVNSAAYRRAREVDSIQQAVMTLGFRRVFPIVRAVALKSALTSDYDLSEFWRYNEWVAGACVMIAEAIGRPELRDHAYMLGLFQSSGIPVMLAEFDDYADLLNAAESTPWQQVQAKELELFQTSHTTIGALLAQQWKLPKIVVEVIYYLFEDSSIFNHSSELDNLTLDLLGILKISRYAIDLRTRSLAGEEEWQYVQDGVLEHFQIDEFKVDEMLQIVHEELFDTEA”: the “soluble on expression in E. coli” value was “not soluble”.

“SLSTRGINFLHQWIANNVPETTKPDAVSISEITHKLFSDAKALGIKREDIDEEVESLTAHCSIGLCISTLA”: the “soluble on expression in E. coli” value is listed as “not soluble”.

As for “MGSDKIHHHHHHMKKLLRNLFGSGREEEKRSASDAMSGREQIVTNSEKSNLSTDPDHVNRQADTLKFDAIRAMNMGELVFATEALRKAMELRPEFETRYYLTEALLRRHLTEEALAQMNLLLEEVPMHTATLLNRAKLRLEQNDPSRALEDCGTGIESTSELEEQALFLYYGASAMKDMKNLKDALCLLKQAIEKNDAFIPARLLRARILIDLERYEEATQDLDWVAASDPEEEQVPMLRARLFMLEGKQQNAIQAYEELLSLDPFNEEGHCGIATLMIKEGRSAEAETFLREAIEEMPVQRNLILMLVEILENKGQTQEAAEWRAKLPEAEVESEAVNFNDLYKGNLY”, the “soluble on expression in E. coli” value was “not soluble”.

As to “MSLTDRTIGEAAELLGVTTRTLRHWDSIGLLQPSWRTTTDYRLYTEDDVERALQILIYRAAGIGLKDIAEVLDQPDSANQHLRRQRELLVEQIGQLHRMVRAVDEILGKDAISVKEKIEIFGEDLPKYQEEAFQRWGEGHHHHHH”, the “soluble on expression in E. coli” value was “soluble”.

“MQEYTNHSDTTFALRNISFRVPGRTLLHPLSLTFPAGKVTGLIGHNGSGKSTLLKMLGRHQPPSEGEILLDAQPLESWSSKAFARKVAYLPQQLPPAEGMTVRELVAIGRYPWHGALGRFGAADREKVEEAISLVGLKPLAHRLVDSLSGGERQRAWIAMLVAQDSRCLLLDEPTSALDIAHQVDVLSLVHRLSQERGLTVIAVLHDINMAARYCDYLVALRGGEMIAQGTPAEIMRGETLEMIYGIPMGILPHPAGAAPVSFVY”: the “soluble on expression in E. coli” value is reported as “soluble”.

With “GFSSEVLKKAYDDTEDIEDQLQQAEGRLFEISQHNMKQDVQPIDPIIKEALGEIQIAANRKEGLSGQPSGFPAIDKLTAGWQASDLIIIAARPAMGKTAFVLSMAKNMAIDYNIPVAIFNLEMSSVQLVKRLMSNVCEIPGEKLKTGRLESHEWVQLDTKLKDFENKPLYIDDTPSLSVFELRTKSRRLVREYGVKVIIIDYLQLMNASGMSFGNREQEVSTISRSLKVLAKELKIPIIALSQLNRSVETRQGDINSKRPQLSDLRESGAIEQDADMVCFIHRPEYYKITEDQQGNSLLGIGEFIIAKHRNGPVDDVRLRFRSEFAKFLPLEAESMVKRHSRIGGSPVEMGVGNGSFAPPLPPPEDNPLLSGPYSSGTSEADFLAEASGIDNPF”, the “soluble on expression in E. coli” value was “not soluble”.

On to “MGNRLMTSGAQGTNAAVIRGAMRADPNLLTVILPQSLDRQPRESREQLEKVIHLVEHAENDHLSLAEASTLCNQAIVTRCQQLICFAFHDSHTLLETCRYAEDQHHLVTLFYFDLEHHHHHH”, for which the “soluble on expression in E. coli” value is “soluble”.

For “MSNTKNTSDSQESQQSSRKPQRSQATQTSQASQKSQSSQEPRRPKPMEVLREARAQLAELTGMTAESVSSFEQTEEGWVLEVEVLELERVPDTMSLMASYQVELDAEGQLTGYRRARRYERGRADSRGGRKLAAALEHHHHHH”, the “soluble on expression in E. coli” value was “soluble”.

For the sequence “MPVFVKLTGGSIGLQAGVQSSDVVLVFRNDRNLDNIVNGKFTLGADASVAAGPVGRNALAATDSELKAEIYSWSTARGLFAGIALDGAALQIDDSANLDVYGKGTTPRMIFEGRTAEPPSSDVIAFRDRLEEVTYTARNNLEHHHHHH”, the “soluble on expression in E. coli” value is recorded as “soluble”.

Take “MKEPVKPTVKLAEIPPREPRFTPEQERIYARLSVHDPFNMLSEQHKANLIQLMTHGLGYRPIQLS”: the “soluble on expression in E. coli” value was “not soluble”.

For “MAEAATPGTTATTSGAGAAAATAAAASPTPIPTVTAPSLGAGGGGGGSDGSGGGWTKQVTCRYFMHGVCKEGDNCRYSHDLSDSPYSVVCKYFQRGYCIYGDRCRYEHSKPLKQEEATATELTTKSSLAASSSLSSIVGPLVEMNTGEAESRNSNFATVGAGSEDWVNAIEFVPGQPYCGRTAPSCTEAPLQGSVTKEESEKEQTAVETKKQLCPYAAVGECRYGENCVYLHGDSCDMCGLQLLHPMDAAQRSQHIKSCIEAHEKDMELSFAVQRSKDMVCGICMEVVYEKANPSERRFGILSNCNHTYCLKCIRKWRSAKQFESKIIKSCPECRITSNFVIPSEYWVEEKEEKQKLILKYKEAMSNKACRYFDEGRGSCPFGGNCFYKHAYPDGRREEPQRQKVGTSSRYRAQRRNHFWELIEERENSNPFDNDEEEVVTFELGEMLLMLLAAGGDDELTDSEDEWDLFHDELEDFYDLDL”, the “soluble on expression in E. coli” value is listed as “soluble”.

As to “MSLSRVPRPHIHQRISVEDIMKGNRRTLAKAITLAESSNPADSTRLGNLLREIHQMATVRTVPRFALSGSPGSGKSSLLDTLGYYLCEKKNMHVGVLAVDPSSTITHGSILGDKTRMEKLGTHLNSYIRPSPSGGHLGGVTSRAWEALEIFEAARFDVVFVETVGVGQSETQCKDLTDMMILLVPPASGDELQGIKKGVVEVADMVVVTKNDGRRKPLVQQTMSAYARAVMYTEEKQGFEKPVIAVSAEEGTNVPELWEAMLKMWNARLESGQIAHLRRAQSTKHFYNYFEMELLAKARRMTNLEMQNMAHRVWEHEMTPREAGDIMVLRTLREHLAADAAVQHDAGKRAEGHHHHHH”, the “soluble on expression in E. coli” value is listed as “soluble”.

Turning to “MRQGFPYARPGQVIGLFGGSFDPPHAGHVHVTREALKMFGLDRVWWLVTPGNPLKAHGPAPLDRRMEAARAMMRHPRVDVTDIEAHLGTRVTADTIAALRRIYPRVRFVWLMGADNLAQLHRWKDWRQIIETVPVGVLARPGDRISARMSPAARAYAPYRIDGQARHLLGRAEAPAWCFVNVPMVDVSSTRIRAAGGWSAAQQGRGQTGTQDQ”, the “soluble on expression in E. coli” value is “not soluble”.
